The record followed here is IntAct's records for PubMed 12540855.

B1: Histone-lysine N-methyltransferase SETD7 (Homo sapiens), Q8WTS6 (parent)
chain: MDSDDEMVEEAVEGHLDDDGLPHGFCTVTYSSTDRFEGNFVHGEKNGRGKFFFFDGSTLEGYYVDDALQGQGVYTYEDGGVLQGTYVDGELNGPAQEYDTDGRLIFKGQYKDNIRHGVCWIYYPDGGSLVGEVNEDGEMTGEKIAYVYPDERTALYGKFIDGEMIEGKLATLMSTEEGRPHFELMPGNSVYHFDKSTSSCISTNALLPDPYESERVYVAESLISSAGEGLFSKVAVGPNTVMSFYNGVRITHQEVDSRDWALNGNTLSLDEETVIDVPEPYNHVSKYCASLGHKANHSFTPNCIYDMFVHPRFGPIKCIRTLRAVEADEELTVAYGYDHSPPGKSGPEAPEWYQVELKAFQATQQK

This assay covers variants of B1. The settings on record: with h31_human H3C1, P68431.
With Y245A, the “effect of a mutation on the interaction” value is on record as “decreasing interaction”.
